In paper PMC8786865:

Molecular target: SARS-CoV-2 spike protein receptor-binding domain (RBD) (SARS-CoV-2) (UniProt P0DTC2)
Experiment: SPR

Substance: CR3022
- Kd: 11 nM
